B1: yeast-displayed wild-type human IL-11 [human] / soluble human IL-11 receptor extracellular domain, his-tagged [human] (parent complex)
chain 1: PGPPPGPPRVSPDPRAELDSTVLLTRSLLADTRQLAAQLRDKFPADGDHNLDSLPTLAMSAGALGALQLPGVLTRLRADLLSYLRHVQWLRRAGGSSLKTLEPELGTLQARLDRLLRRLQLLMSRLALPQPPPDPPAPPLAPPSSAWGGIRAAHAILGGLHLTLDWAVRGLLLLKTRL
chain 2: SPCPQAWGPPGVQYGQPGRSVKLCCPGVTAGDPVSWFRDGEPKLLQGPDSGLGHELVLAQADSTDEGTYICQTLDGALGGTVTLQLGYPPARPVVSCQAADYENFSCTWSPSQISGLPTRYLTSYRKKTVLGADSQRRSPSTGPWPCPQDPLGAARCVVHGAEFWSQYRINVTEVNPLGASTRLLDVSLQSILRPDPPQGLRVESVPGYPRRLRASWTYPASWPCQPHFLLKFRLQYRPAQHPAWSTVEPAGLEEVITDAVAGLPHAVRVSARDFLDAGTWSTWSPEAWGTPSTGTIPKEIPAWGQLHTQPEVEPQVDSPAPPRPSLQPHPRLLDHRDSVEQVAVLA

Variants of: B1
Experiment: yeast display titration (flow cytometry); parent: 8.2 nM

Row | Kd [nM] | Variant
1 | 0.22 | chain 1 PGPPPGPPRVSPDPRAELDSIVLLTRSLLADTRQLAAQLRDKFPADGDHNLDSLPTPAMSARALGALQLPGVLTRLRADLLSYLRHVQWLRRAGGSSLKTLEPELGTLQARLDRLLRRLQLLMSRLALPQPPPDPPAPPLAPPSSAWGGIRAAHAILGGLHLTLDWAVRGLLLLKTRL [chain 1 T21I, chain 1 L57P, chain 1 G62R]
2 | 0.19 | chain 1 PGPPPGPPRVSPDPRAELGSIVLLTRSLLADTRQLAAQLRDKFPADGDHNLDSLPTPAMSARALGALQLPDVLTRLRADLLSYLRHVQWLRRAGGSSLKTLEPELGTLQARLDRLLRRLQLLMSRLALPQPPPDPPAPPLAPPSSAWGGIRAAHAILGGLHLTLDWAVRGLLLLKTRL [chain 1 D19G, chain 1 T21I, chain 1 L57P, chain 1 G62R, chain 1 G71D]
3 | 0.42 | chain 1 PGPPPGPPRVSPDPRAELDSTVLLTRSLLADTRQLAAQLRDKFPADGDHNLDSLPTPAMSARALGALQLPGVLTRLRADLLSYLRHVQWLRRAGGSSLKTLEPELGTLQARLDRLLRRLQLLMSRLALPQPPPDPPAPPLAPPSSAWGGIRAAHAILGGLHLTLDWAVRGLLLLKTRL [chain 1 L57P, chain 1 G62R]

Reference: PMC10658506 (2023)
